Reference: US20170101472A1 (Regeneron, published 2017)

Columns and labels:
[1] = target: T1, recombinant human LAG3 expressed with a C-terminal myc-myc-hexahistidine tag (human, UniProt P18627 29-450); test: SPR, mAb captured, 25 C
T1 construct: also called hLAG3-mmh; hLAG3.mmh
Procedure: (§1) The BiaCore sensor surface was derivatized with either a polyclonal rabbit anti-mouse antibody (GE, # BR-1008-38) or with a monoclonal mouse anti-human Fc antibody (GE, # BR-1008-39) to capture approximately 50-85 RUs of anti-LAG3 monoclonal antibodies, expressed with either a mouse Fc or a human Fc, respectively. […] The binding of the LAG3 reagents to captured monoclonal antibodies was monitored for 4 minutes while their dissociation from the antibodies was monitored for 8 minutes in HBST running buffer (0.01 M HEPES pH 7.4, 0.15 M NaCl, 3 mM EDTA, 0.05% v/v Surfactant P20). Experiments were performed at 25° C. and 37° C. Kinetic association (kₐ) and dissociation (kd) rate constants were determined by processing and fitting the data to a 1:1 binding model using Scrubber 2.0c curve fitting software. Binding dissociation equilibrium constants (KD) and dissociative half-lives (t_{1/2}) were then calculated from the kinetic rate constants as: KD (M)=kd/kₐ and t_{1/2} (min)=[ln2/(60*kd)].

[2] = target: T2, recombinant human LAG3 expressed with a C-terminal mouse IgG2a mFc tag (human); test: SPR, mAb captured, 25 C
T2 construct: Called dimeric; also called hLAG3-mFc; hLAG3 dimer
T2 chain: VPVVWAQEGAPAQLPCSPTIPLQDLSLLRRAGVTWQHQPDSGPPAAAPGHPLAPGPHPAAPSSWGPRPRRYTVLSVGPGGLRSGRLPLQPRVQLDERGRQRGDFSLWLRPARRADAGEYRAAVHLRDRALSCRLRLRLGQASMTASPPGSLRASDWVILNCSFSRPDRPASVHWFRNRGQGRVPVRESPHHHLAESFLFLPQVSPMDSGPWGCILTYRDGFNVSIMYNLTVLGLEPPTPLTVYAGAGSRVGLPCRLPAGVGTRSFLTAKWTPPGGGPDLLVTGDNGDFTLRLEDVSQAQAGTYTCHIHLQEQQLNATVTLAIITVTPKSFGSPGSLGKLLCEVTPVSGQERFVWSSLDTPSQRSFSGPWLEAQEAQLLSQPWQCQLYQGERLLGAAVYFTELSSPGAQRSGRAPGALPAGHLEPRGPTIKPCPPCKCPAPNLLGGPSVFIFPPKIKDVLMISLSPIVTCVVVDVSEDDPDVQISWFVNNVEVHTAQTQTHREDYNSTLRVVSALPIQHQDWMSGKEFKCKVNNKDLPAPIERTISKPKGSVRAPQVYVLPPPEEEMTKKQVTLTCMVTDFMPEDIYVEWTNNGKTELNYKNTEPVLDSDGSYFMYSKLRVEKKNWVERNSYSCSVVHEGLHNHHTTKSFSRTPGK
Procedure: as §1

[3] = target: T1, recombinant human LAG3 expressed with a …; test: SPR, mAb captured, 37 C
Procedure: as §1

[4] = target: T2, recombinant human LAG3 expressed with a …; test: SPR, mAb captured, 37 C
Procedure: as §1

[5] = target: T3, human LAG3 expressed on HEK293 cells (human, UniProt P18627 23-525); test: electrochemiluminescence cell binding
T3 construct: also called hLAG3; HEK293/hLAG3
T3 sequence: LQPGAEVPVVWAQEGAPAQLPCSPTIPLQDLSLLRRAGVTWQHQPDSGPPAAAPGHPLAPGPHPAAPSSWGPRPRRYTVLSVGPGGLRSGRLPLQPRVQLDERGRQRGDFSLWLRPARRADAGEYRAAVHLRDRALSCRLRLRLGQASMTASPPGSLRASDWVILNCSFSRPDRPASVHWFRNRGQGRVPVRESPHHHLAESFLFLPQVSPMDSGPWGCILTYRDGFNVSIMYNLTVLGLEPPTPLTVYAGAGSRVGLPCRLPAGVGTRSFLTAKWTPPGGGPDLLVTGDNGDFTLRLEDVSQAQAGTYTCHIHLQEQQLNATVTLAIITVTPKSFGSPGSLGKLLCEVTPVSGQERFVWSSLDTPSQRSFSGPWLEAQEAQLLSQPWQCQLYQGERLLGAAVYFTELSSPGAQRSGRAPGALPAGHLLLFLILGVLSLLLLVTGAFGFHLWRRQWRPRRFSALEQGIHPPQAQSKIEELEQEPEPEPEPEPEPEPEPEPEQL
Procedure: To investigate the ability of a panel of anti-LAG3 monoclonal antibodies to bind cell-surface expressed LAG3, an in vitro binding assay utilizing human and monkey LAG3 expressing cell lines in an electrochemiluminescence based detection platform [Meso Scale Diagnostics, Rockville, Md.—(MSD)] was developed.
Experiments were carried out according to following procedure. Cells from the three cell lines described above were rinsed once in 1×PBS buffer without Ca²⁺/Mg²⁺ followed by 10-minute incubation at 37° C. with Enzyme Free Cell Dissociation Solution. […] Approximately 10,000 cells per well in the cell-washing buffer were seeded into the 96-well carbon electrode plates (MULTI-ARRAY high bind plate, MSD) and incubated for 1 hour at 37° C. to allow the cells to adhere. Nonspecific binding sites were blocked by 2% BSA (w/v) in PBS for 1 hour at room temperature. […] The plates were then washed to remove the unbound antibodies using an AquaMax2000 plate washer (MDS Analytical Technologies). The plate-bound antibodies were detected with a SULFO-TAG™-conjugated anti-human IgG antibody (MSD) for 1 hour at room temperature. After washes, the plates were developed with the Read Buffer (MSD) according to manufacturer's recommended procedure and the luminescent signals were recorded with a SECTOR Imager 6000 (MSD) instrument. The direct binding signals (in relative light units—RLU) were analyzed as a function of the antibody concentration and the data were fitted with a sigmoidal (four-parameter logistic) dose-response model using Graph Pad Prism™ software. The potency of each antibody was determined by calculating EC₅₀.

T1 sequence (P18627 other isoform, or with tags, fused parts or gaps limits assumed): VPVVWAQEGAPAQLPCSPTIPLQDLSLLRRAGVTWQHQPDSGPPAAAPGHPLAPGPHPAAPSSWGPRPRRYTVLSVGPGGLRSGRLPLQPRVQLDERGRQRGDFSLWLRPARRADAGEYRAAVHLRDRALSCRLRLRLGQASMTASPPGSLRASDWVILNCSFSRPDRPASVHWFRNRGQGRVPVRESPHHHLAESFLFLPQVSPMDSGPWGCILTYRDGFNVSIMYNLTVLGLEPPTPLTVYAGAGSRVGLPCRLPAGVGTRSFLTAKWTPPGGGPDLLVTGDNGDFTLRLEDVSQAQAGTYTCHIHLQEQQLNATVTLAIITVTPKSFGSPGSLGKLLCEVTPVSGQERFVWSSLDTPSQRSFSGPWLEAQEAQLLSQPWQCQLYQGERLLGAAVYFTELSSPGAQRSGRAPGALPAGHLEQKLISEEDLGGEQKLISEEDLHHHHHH

Kd [1]: 48.7 pM
koff [1]: 5.98e-05 s⁻¹
kon [1]: 1.23e+06 M⁻¹ s⁻¹
t1/2 [1]: 3.22 h
Kd [2]: ≤ 3.28 pM
koff [2]: ≤ 1e-05 s⁻¹
kon [2]: 3.05e+06 M⁻¹ s⁻¹
t1/2 [2]: ≥ 19.2 h
Kd [3]: 34.1 pM
koff [3]: 4.24e-05 s⁻¹
kon [3]: 1.24e+06 M⁻¹ s⁻¹
t1/2 [3]: 4.54 h
Kd [4]: 3.42 pM
koff [4]: 1e-05 s⁻¹
kon [4]: 2.92e+06 M⁻¹ s⁻¹
t1/2 [4]: ≥ 19.2 h
Ratio of 100 nM antibody binding HEK293-hLAG3 to HEK293 cells [5]: 17.8
B1: H4sH15479P (antibody, V domains shown)
VH: QVQLQQWGAGLLNPSETLSLTCAVYGGAFSDYYWNWIRQPPGKGLEWIGEINHRGSTNYNPSLKSRVTISVDTSKNQFSLRMSSVTAADAAVYYCARGEDYDIWNGYYQEKWGQGTLVTVSS
VL: EIVLTQSPATLSLSPGERATLSCRASQSISTYLAWYQQKPGQAPRLLIYDASKRATGIPARFSGSGSGTDFTLTISSLEPEDFVVYYCHQRSNWPLTFGGGTKVEIK
